Laboratory results taken from US20070178531A1 (BIOCHECK, published 2007).
Substitutions are numbered along the chain they refer to.

T1: Human Id1: Histidine (human, UniProt P41134 1-155, limits assumed)
T1 construct: Fusion protein made in E. coli from vector pGW07; also called h-Id1: his; not shown: His tag
T1 sequence (looked up): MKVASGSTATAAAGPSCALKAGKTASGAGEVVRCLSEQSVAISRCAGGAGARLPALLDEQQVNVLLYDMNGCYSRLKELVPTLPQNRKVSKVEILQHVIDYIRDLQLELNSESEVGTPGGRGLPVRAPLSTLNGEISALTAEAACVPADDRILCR

T2: Mouse Id2: Histidine (mouse, UniProt P41136 1-134, limits assumed)
T2 construct: Fusion protein made in E. coli from vector pGW07; also called m-Id2: His; not shown: His tag
T2 sequence (looked up): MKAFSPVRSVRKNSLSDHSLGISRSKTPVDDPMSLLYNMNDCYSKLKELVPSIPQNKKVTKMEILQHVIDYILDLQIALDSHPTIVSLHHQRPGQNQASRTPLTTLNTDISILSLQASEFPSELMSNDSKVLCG

T3: Human Id2: Histidine (human, UniProt Q02363 1-134, limits assumed)
T3 construct: Fusion protein made in E. coli from vector pGW07; also called h-Id2: His; not shown: His tag
T3 sequence (looked up): T2 sequence (looked up) with T60S, V131A

T4: Mouse Id3: Histidine (mouse, UniProt P41133 1-119)
T4 construct: Fusion protein made in E. coli from vector pGW07; also called m-Id3: His; Mouse Id3 (coated wells); not shown: His tag
T4 sequence: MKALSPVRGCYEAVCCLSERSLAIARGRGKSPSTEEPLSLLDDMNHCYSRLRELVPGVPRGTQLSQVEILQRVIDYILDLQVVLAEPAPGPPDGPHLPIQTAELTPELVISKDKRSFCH

T5: Human Id3: Histidine (human, UniProt Q02535 1-119 at identity 1.00))
T5 construct: Fusion protein made in E. coli from vector pGW07; also called h-Id3: His; Human Id3 (coated wells); not shown: His tag
T5 chain: T4 sequence with S31G, S33A, T34A, T105A, K112N

T6: Mouse Id1: Histidine (mouse, UniProt P20067-2 1-148, limits assumed)
T6 construct: Fusion protein made in E. coli from vector pGW07; also called m-Id1-His; not shown: His tag
T6 sequence (looked up): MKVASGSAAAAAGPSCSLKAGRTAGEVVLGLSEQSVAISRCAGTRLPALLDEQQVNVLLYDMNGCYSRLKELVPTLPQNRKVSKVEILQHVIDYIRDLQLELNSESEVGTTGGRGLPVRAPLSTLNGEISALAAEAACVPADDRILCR

B1: rabbit monoclonal anti-human Id3, clone #BCH-4/#3-3 (antibody, V domains shown)
VH: QSVEESGGRLVTPGTPLTLTCTVSGIDLSSYAMSWVRQAPGKGLEWIGVIFPSNNVYYASWAKGRFTISKTSTTVDLKITSPTTEDTATYFCASMGAFDSWGPGTLVTVSS
VL: QVLTQTPSPVSAAVGGTVTINCQASQSIYNDNDLAWFQQKPGQPPKLLIYDASTLTSGVPSRFKGSGSGTQFTLTISDLDCDDAATYYCAARYSGNIYGFGGGTEVVVK
notes: Rabbit IgG from a rabbit hybridoma; also called h Id3 MoAb 3-3
B2: rabbit monoclonal anti-mouse/human Id3, clone #BCH-4/#16-1 (antibody, V domains shown)
VH: QSVEESGGRLVTPGTPLTLTCTASGFSLSSYYIHWVRQAPGKALEWIGYISDGGTTYYASWAKGRFTISKTSSTTVDLKMTSLTTEDTATYFCARQGFNIWGPGTLVTVSL
VL: AVLTQTPSPVSAAVGGTVTISCQSSQSVYNNNWLSWFQQKSGQPPKLLIYETSKLESGVPSRFKGSGSGTQFTLTIIDVQCDDAATYYCLGGYWTTSDNNIFGGGTEVVVK
notes: Rabbit IgG from a rabbit hybridoma; also called m/h Id3 MoAb 16-1
B3: rabbit monoclonal anti-mouse/human Id3, clone #BCH-4/#17-3 (antibody, V domains shown)
VH: B2 VH with S30N, Y31V, A43G, G54D, T56A, Y57R, S60T, D77N
VL: B2 VL with T19S, Y29W, S41P, I77S, I101V
notes: Rabbit IgG from a rabbit hybridoma; also called m/h Id3 MoAb 17-3; BCH-3/#17-3
B4: rabbit monoclonal anti-mouse/human Id3, clone #BCH-4/#6-1 (antibody, V domains shown)
VH: B2 VH with S30N, Y31V, A43G, G54D, T56A, Y57R, S60T, D77N
VL: B2 VL with T19S, Y29W, S41P, I77S, I101V
notes: Rabbit IgG from a rabbit hybridoma; also called m/h Id3 MoAb 6-1
B5: rabbit monoclonal anti-mouse/human Id3, clone #BCH-4/#42-1 (antibody, V domains shown)
VH: B2 VH
VL: B2 VL with T95S
notes: Rabbit IgG from a rabbit hybridoma; also called m/h Id3 MoAb 42-1

What follows are binders tested against T1, Human Id1: Histidine (assay: ELISA, Ab 0.010 µg/ml).
Method: (§1) The rabbit monoclonal anti-human Id3 (clone #3-3) and the rabbit monoclonal anti-mouse/human Id3 (clones #6-1, 16-1, 17-3, and 42-1) produced in Example 6 were tested reactivity against the following antigens: mouse Id1:His, human Id1:His, mouse Id2:His, human Id2:His, mouse Id3:His, human Id3:His, mouse Id4:His, human Id4:His and GST.
(§2) 1. Microtiter wells (prepared in accordance with Example 6) were coated (0.1 μg/well) with mouse Id1:His, human Id1:His, human Id2:His, human Id3:His, and 1.0 μg/well with GST. [0155] 2. Antibody Diluent: 0.25% (w/v) BSA in 0.015M KPO₄ Buffer, 0.85% (w/v) NaCl, 0.1% (w/v) NaN₃, pH=7.40 [0156] 3. Rabbit monoclonal anti-human Id3 (clone #3-3) prepared in Example 7 was diluted to […] with the antibody diluent. […] 4. Rabbit monoclonal anti-mouse/human Id3 (clones #6-1, 16-1, 17-3, 42-1) prepared in Example 7 was diluted to 0.005, 0.010, 0.025, 0.05, 0.10, 0.25, and 0.50 μg/ml with the antibody diluent. […] 5. Conjugate Diluent: 50% (v/v) which consists of an aqueous solution containing Fetal Bovine Serum in 0.05 M Tris, 1% (v/v) Proclin-300, pH 7.6. [0159] 6. Conjugate: Goat anti-rabbit IgG (H+L)-HRP conjugate. [0160] 7. TMB reagent. […] 8. Stop solution (1 N HCI). Method
(§3) 1. Dispense 100 μL of antibody diluent, diluted rabbit monoclonal human Id3, and mouse/human Id3 hybridoma supernatants into appropriate wells. […] 2. Incubate at room temperature with mechanical shaking at 750 rpm for 90 minutes. [0165] 3. Remove the incubation mixture by flicking plate content into an appropriate waste container followed by rinsing the wells 5 times with distilled water. [0166] 4. Strike the wells sharply onto absorbent paper or paper towels to remove all residual water droplets. [0167] 5. Dispense 100 μL of 1:50,000 Goat Anti-Rabbit IgG-HRP Conjugate Reagent into each well. Gently mix for 5 seconds. [0168] 6. Incubate at room temperature with mechanical shaking at 750 rpm for 90 minutes. [0169] 7. Repeat procedures 3 and 4. [0170] 8. Dispense 100 μL of TMB Reagent into each well. Gently mix for 5 seconds. [0171] 9. Incubate at room temperature with mechanical shaking at 750 rpm for 20 minutes. […] 10.

Point of comparison: B1, A450 0.046 A450. Against it:
- B2 — lower, 0.042 A450
- B3 — the same, 0.046 A450
- B4 — higher, 0.049 A450
- B5 — lower, 0.045 A450

The binders below were run against T2, Mouse Id2: Histidine (assay: ELISA, Ab 0.010 µg/ml).
Method: as §1, §2, §3

Point of comparison: B1, A450 0.045 A450. Against it:
- B2 — higher, 0.049 A450
- B3 — higher, 0.048 A450
- B4 — higher, 0.048 A450
- B5 — higher, 0.05 A450

These binders were tested against T3, Human Id2: Histidine (assay: ELISA, Ab 0.010 µg/ml).
Method: as §1, §2, §3

Point of comparison: B2, A450 0.044 A450. Against it:
- B1 — lower, 0.043 A450
- B3 — lower, 0.043 A450
- B4 — the same, 0.044 A450
- B5 — higher, 0.046 A450

What follows are binders tested against T4, Mouse Id3: Histidine (assay: ELISA, Ab 0.010 µg/ml).
Method: as §1, §2, §3

Point of comparison: B4, A450 0.539 A450. Against it:
- B2 — lower, 0.432 A450
- B3 — higher, 0.69 A450
- B5 — higher, 0.756 A450

Target: T5, Human Id3: Histidine
Experiment: ELISA, Ab 0.010 µg/ml
Method: as §1, §2, §3

Point of comparison: B2, A450 0.391 A450. Against it:
- B3 — higher, 0.581 A450
- B4 — higher, 0.491 A450
- B5 — higher, 0.713 A450

Each binder was assayed against T6, Mouse Id1: Histidine (assay: ELISA, Ab 0.010 µg/ml).
Method: as §1, §2, §3

Point of comparison: B1, A450 0.047 A450. Against it:
- B2 — higher, 0.05 A450
- B3 — the same, 0.047 A450
- B4 — lower, 0.044 A450
- B5 — lower, 0.043 A450

These binders were tested against T1, Human Id1: Histidine (assay: ELISA, Ab 0.050 µg/ml).
Method: as §1, §2, §3

Point of comparison: B1, A450 0.05 A450. Against it:
- B2 — lower, 0.047 A450
- B3 — lower, 0.044 A450
- B4 — higher, 0.052 A450
- B5 — lower, 0.045 A450

What follows are binders tested against T2, Mouse Id2: Histidine (assay: ELISA, Ab 0.050 µg/ml).
Method: as §1, §2, §3

Point of comparison: B4, A450 0.051 A450. Against it:
- B1 — lower, 0.048 A450
- B2 — the same, 0.051 A450
- B3 — higher, 0.054 A450
- B5 — the same, 0.051 A450

The binders below were run against T3, Human Id2: Histidine (assay: ELISA, Ab 0.050 µg/ml).
Method: as §1, §2, §3

Point of comparison: B1, A450 0.048 A450. Against it:
- B2 — lower, 0.044 A450
- B3 — higher, 0.049 A450
- B4 — lower, 0.046 A450
- B5 — lower, 0.047 A450

Target: T5, Human Id3: Histidine
Experiment: ELISA, Ab 0.050 µg/ml
Method: as §1, §2, §3

Point of comparison: B3, A450 1.8 A450. Against it:
- B2 — lower, 1.4 A450
- B4 — lower, 1.61 A450
- B5 — higher, 2 A450

Each binder was assayed against T6, Mouse Id1: Histidine (assay: ELISA, Ab 0.050 µg/ml).
Method: as §1, §2, §3

Point of comparison: B1, A450 0.049 A450. Against it:
- B2 — lower, 0.044 A450
- B3 — lower, 0.048 A450
- B4 — lower, 0.046 A450
- B5 — higher, 0.05 A450
